Test [1] addresses Cse4 150-229 (sedimentation sample) (budding yeast) (UniProt P36012). Kind of test: AUC.
The target is the same in test [2]. Kind of test: AUC. This is another data set of the same source.
In test [3] the target is single chain Cse4-H4 (His6-KK-Cse4_(151–207)-LVPRGS-H4_(45–103)) (budding yeast | not stated) (UniProt P36012). Kind of test: ITC.

The text below walks through data of paper PMC3077455.

Where two headings read alike, the source gives them in different places.

Usually stoichiometry N stands for a count of units in the complex or per binding partner.

Scm3 84-169, sequence (Q12334 84-169): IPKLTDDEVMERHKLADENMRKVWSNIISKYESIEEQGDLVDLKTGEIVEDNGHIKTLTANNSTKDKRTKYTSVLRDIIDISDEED

Turning to “Scm3 84-169 (from UniProt Q12334 84-169) (domain or fragment)”, the stoichiometry N in test [1] and in test [2] was 1 in each case. Substance “Scm3 Ile110Asp/Ile117Asn (from UniProt Q12334 83-169) (domain or fragment)” gave a fold reduction of the binding affinity against the wild type in test [3] of 85 fold. For the substance “histone H4, full length (from UniProt P02309 1-103) (natural protein)”, the stoichiometry N in test [1] and in test [2] was 1 each time.
